How the values were obtained:
[1] = ATPase activity at 0.05 ppm enzyme on 0.1 mM ATP (absorbance 620 nm); format: biochemical; settings: for Activity on ATP (absorbance at 620 nm, blank subtracted), pH 5.0: 50 mM IVIES buffer pH 5; for Activity on ATP (absorbance at 620 nm, blank subtracted), pH 6.0: 50 mM IVIES buffer pH 6
Experimental: Enzyme activity towards ATP or ADP at pH 3 to 9: The ability of candidate enzymes to degrade ATP or ADP to AMP and free phosphate (Pi) was measured using a standard malachite green phosphate detection kit (Sigma Aldrich cat no. MAK307). The enzyme reactions were carried out in 96-well plates with a total volume of 150 μL and contained 250 μM of a substrate, 50 mM of a buffer, 5 mM CaCl2, and a variable concentration of enzyme. The substrate was ATP or ADP. The buffer was glycine (pH 3), acetate (pH 4, 4.5, 5), bis-Tris (pH 5.5, 6, 6.5), or Tris (pH 7, 8, 9). The concentration of enzyme varied from about 1 μg/mL to 1 ng/mL and was adjusted based on the activity of the enzyme so that the amount of phosphate released during the assay was with the dynamic range of the assay (5-100 μM phosphate). The enzyme concentration was determined by the absorbance at 280 nm and using the predicted molecular weight and molar extinction coefficient to calculate the concentration. The enzyme reaction was initiated by the addition of 15 μL enzyme with 135 μL of the other reaction components such that the final reaction composition was as previously described. The reaction was stopped after 5 min by mixing 80 μL of the reaction mixture with 20 μL of the malachite green working reagent. The malachite green working reagent was prepared according to the manufacturer's protocol by mixing 100 parts reagent A with 1 part reagent B. Phosphate standard solutions (0-80 μM) and a negative control reaction without enzyme were also mixed with the malachite green working reagent. All samples were tested in duplicate. The malachite green reaction mixture was allowed to rest at room temperature for 45-60 min and the absorbance at 620 nm was measured. Lastly, the absorbance of the phosphate standards were used to convert the absorbance readings of each sample into phosphate concentrations and the negative control was subtracted from each reaction.
Enzymes of interest were assayed against ATP substrate. The ATPase activity was measured at 0.05 ppm concentration in 50 mM IVIES buffer pH 6 and pH 5 with 0.1 mM ATP as substrate as described in Example 1. Commercial potato apyrase was used as reference. The absorbance at 620 nm was measured and the absorbance of a blank sample (water) was subtracted from each sample.

[2] = pH profile of enzymes on 1 mM ATP; format: biochemical; settings: 50 mM trisodium citrate/citric acid, 5 mM CaCl2, relative to the highest value
Experimental: The pH profile of additional enzymes of interest was assayed using 1 mM ATP, in 50 mM trisodium citrate/citric acid buffer with 5 mM CaCl2. Absorbance was read at 620 nm and all values were set relative to the highest one. Commercial potato apyrase was used as reference. […]

B1: CRC22387: GDA1/CD39 family enzyme, accession WP_127099836.1, SEQ ID NO:13 (protein, listed as Legionella sp.)
chain: QSSPCEKQQCIAIVDAGSTGSRLHIYAYDLDVTKTPIHIKELWNKKITPGFARIEANTNTIDSYLTILLADSPIKKIPIYFYATAGMRLLPQMKQKKYYDELSSWFKKHSEWQLVEAKTITGNEEGLYDWLSVNYHLGNFESPTNKSIGVMDMGGASVQIVFPIAETPTINDKSQIQVNLYGRHYNLYVHSFLGLGQTEMSHQFLNSASCFVNNYPLPDGAEGQGNALSCEQEVSSLMNQVHGVNQLIQPLLAANPVDSWYSIGGISNLADSQFFNFQHSQLTNQDLLEQADSQICHQQWEDINNQYPDDDYVYQYCLFSAYYYALMVDGYGLYPEQTINYLPPQQNIDWTTGVVLHQQR
[1]
  Activity on ATP (absorbance at 620 nm, blank subtracted), pH 5.0: 0.36
  Activity on ATP (absorbance at 620 nm, blank subtracted), pH 6.0: 0.11
[2]
  Relative activity on ATP, pH 3: 0.1
  Relative activity on ATP, pH 3.5: 0.0
  Relative activity on ATP, pH 4: 0.0
  Relative activity on ATP, pH 4.5: 0.1
  Relative activity on ATP, pH 5: 0.3
  Relative activity on ATP, pH 5.5: 0.5
  Relative activity on ATP, pH 6: 1.0
  Relative activity on ATP, pH 6.5: 1.0

B2: CRC22620: GDA1/CD39 family enzyme, accession NBS62745.1, SEQ ID NO:16 (protein, listed as Betaproteobacteria sp.)
chain: EDAARYLAVIDAGSSGSRLHLYERTAAERSVAVKQLFEAKAGEALSSFERSPGDAGPRGIQPLLEQLLDRLALLNIERSAVHVHVLATAGMRRLDADNPAAAQVIYQSVRHTLSSAGVTARRIETLSGHLEGVYAWVDVNDLSGALASTPAGATVAVIEVGGASAQLAYSGEALAGAPVTAVRLNGRSHQVVSLTWLGLGQDEARRAMLNAARSRSNADEEHCYPDNRKAAGGLSAFDADGSRHLVARGRFSFEQCSEMYDAVIRPFDLPPLATAIRQSRRPLVGLASVYFSLADWQVIGQPGTLASTLRGQCEGEDAYGDKVIGFIRRDPKNRFAQTACANGTFIHALLFGPAGLRVDPAQVSAVARINGQPPSWARGFALLGR
[1]
  Activity on ATP (absorbance at 620 nm, blank subtracted), pH 5.0: 0.13
  Activity on ATP (absorbance at 620 nm, blank subtracted), pH 6.0: 0.22
[2]
  Relative activity on ATP, pH 3: 0.0
  Relative activity on ATP, pH 3.5: 0.0
  Relative activity on ATP, pH 4: 0.0
  Relative activity on ATP, pH 4.5: 0.1
  Relative activity on ATP, pH 5: 0.4
  Relative activity on ATP, pH 5.5: 0.7
  Relative activity on ATP, pH 6: 1.0
  Relative activity on ATP, pH 6.5: 0.8

B3: CRC22606: GDA1/CD39 family enzyme, accession OQW93475.1, SEQ ID NO:15 (protein, listed as Beggiatoa sp.)
chain: ETNGPAACHIVYDAGSSGTRLYIYEQQDKAWLEHEGPKVSALADPVREIRGKHWKDAESVTIEVVSALDSIKQDGPVKGDKPAWKAFDWTKHCQIKSAGVYATAGMRLAEQANKERSVTLWASLKQKLAAKLGPTVDIEARTLTGYEEGLYAWLAVREQQPDDSFAIAEMGGASAQITFPCAKCDENDPDTKTVQLSGKHLQIYSYSFLGLGQDEASHSLGFPTSCANGIGTQQSGWKAQDCANQIQLTGSKGIRDPYDFDGEQRGAHEQPPIAQADSNRWFLTGAFNYMNASNIETYCLKDPKLSEEESFCFRSIYPEKYLETLKIPVNSPKMNVSWTQGAVICKANSCLEAATKTPPLCRWLDKGCLP
[1]
  Activity on ATP (absorbance at 620 nm, blank subtracted), pH 5.0: 0.43
  Activity on ATP (absorbance at 620 nm, blank subtracted), pH 6.0: 0.21
[2]
  Relative activity on ATP, pH 3: 0.0
  Relative activity on ATP, pH 3.5: 0.0
  Relative activity on ATP, pH 4: 0.0
  Relative activity on ATP, pH 4.5: 0.3
  Relative activity on ATP, pH 5: 0.6
  Relative activity on ATP, pH 5.5: 0.8
  Relative activity on ATP, pH 6: 0.9
  Relative activity on ATP, pH 6.5: 1.0

B4: CRC22112: GDA1/CD39 family enzyme, accession KTD66016.1, SEQ ID NO:10 (protein, listed as Legionella santicrucis)
chain: ESAECTEHQCMAVVDAGSTGSRAHIFAYDLDETNTPSQIHEIWSKKIKPGLATIEANQDTIDAYLTILFSGAPKQNIPVYFYATGGMRLIPQTKQKLYYKEIQNWFNQQSIWQLIEAKTITGNDEALYDWLAVNYHIGTLKSSTTEPIGVMDIGGASVQIAFPIPKDVETNKSSQVELDLYGKHLNLFVHSFLGLGQNEVTHQLLDTNSCFSEGYPLPGGNLGQGDAVICQQEVSSLINRVHKVQSEVQPTLATNRITMWYAIGGLTNLVESEPFQFQNNQITNQDLLQQANSLICHQQWEGLSTQFPDNEYIESFCLLPAFYYALMIDGYGISVTQPVKYISPRENLDWTTGVVLHH
[1]
  Activity on ATP (absorbance at 620 nm, blank subtracted), pH 5.0: 0.04
  Activity on ATP (absorbance at 620 nm, blank subtracted), pH 6.0: 0.06

B5: CRC22386: GDA1/CD39 family enzyme, accession WP_173236575.1, SEQ ID NO:12 (protein, listed as Legionella antarctica)
chain: GTVSCNEHQCIAVIDAGSTGSRIHVYAYDMDETNTPVHINEVWTKKIKPGFATIEPNYESIEAYLVTLLSGAPNQDIPVYFYATAGMRLLPASKQKLYYQELQRWFSQQHQWRLIDAKTITGNEEALYDWLSVNYHLDTLKSIQNKSVGVMDMGGASVQIVFPIQKNEEINSNSQVELDLYGHHVNLYVHSFLGLGQTEMSHQFLNSVSCFANDYPLPDGESGRGNAPSCKQEVSSLMNGVHGVNKTIQPVLTANPVDTWFAIGGLTNLADNKLFHFENGELTNQNLMQQADSQICHQQWDKLNSEFPNDDYVYEYCLLSAYYYALMVDGYGIYPEQTVNYVSSALNLDWTKGVVLHH
[1]
  Activity on ATP (absorbance at 620 nm, blank subtracted), pH 5.0: 0.36
  Activity on ATP (absorbance at 620 nm, blank subtracted), pH 6.0: 0.25
[2]
  Relative activity on ATP, pH 3: 0.0
  Relative activity on ATP, pH 3.5: 0.0
  Relative activity on ATP, pH 4: 0.0
  Relative activity on ATP, pH 4.5: 0.0
  Relative activity on ATP, pH 5: 0.2
  Relative activity on ATP, pH 5.5: 0.6
  Relative activity on ATP, pH 6: 0.8
  Relative activity on ATP, pH 6.5: 1.0

B6: CRC22383: GDA1/CD39 family enzyme, accession WP_058475114.1, SEQ ID NO:11 (protein, listed as Legionella quateirensis)
chain: ADNPCTNHQCIAVIDAGSTGSRLHVFSYDVDETRSPININEIWNKKIKPGFATIEPNSNTIDAYLTTLLSGAPNQQIPVYFYATAGMRLLPVSKQKKYYDELQHWFSQQSQWQLVEAKTITGNDEALYDWLSVNYHLGTLQKSLNQSVGVMDMGGASVQIVFPIQKNSELNTRSQVELDLYGQHYTLYVQSFLGLGQTEVAHQFLNSAPCFSNDYPLPDGESGQGNASACEQEVSRLMTEVHKVNNVIQPLLAANPVDSWYSIGGISNLADSSLFHFENSKLTNQNLLQQADSQVCHQQWDSLNSQFPDDEYVYQYCLFSAYYYALMVDGYGIVPDQSINYIPPAQNLDWTMGVVLHH
[1]
  Activity on ATP (absorbance at 620 nm, blank subtracted), pH 5.0: 0.07
  Activity on ATP (absorbance at 620 nm, blank subtracted), pH 6.0: 0.10

B7: CRC22605: GDA1/CD39 family enzyme, accession WP_133471262.1, SEQ ID NO:14 (protein, listed as Paraglaciecola sp.)
chain: QSKKPCYIVYDAGSSGTRLYIYEQLGANLISHEGPKVSALADPIRYTHGKDLSDLDTITNEVASALDLIKLDGPLEEGKPKWSGFDWSKQCEAQSVKVFATAGMRIAEQINPADSLVLWQTLASKINAKVGHNIKVEARTLTGFEEGLFAWLSVKDVYPSGHYGMVEMGGASSQITFPCPQCSLANDAVKTVTVDGKPIQIYSYSYLGLGQNEAPYSLPFGVAGQVPKSCSYGVGANNPDWTIASCAVEIPITAKGSNTDIIDPYNYTKTGTKGTTNTLPAAHKNIPKWLLMGAFNYAKETDIDDFCFNQHDGYYNAFTACFNPIYLDKYLKTLNIQAEQSSKVDVSWTQGAVICQIENCLATITPPPVCRWMKSGCLAY
[1]
  Activity on ATP (absorbance at 620 nm, blank subtracted), pH 5.0: 0.50
  Activity on ATP (absorbance at 620 nm, blank subtracted), pH 6.0: 0.28
[2]
  Relative activity on ATP, pH 3: 0.0
  Relative activity on ATP, pH 3.5: 0.0
  Relative activity on ATP, pH 4: 0.0
  Relative activity on ATP, pH 4.5: 0.0
  Relative activity on ATP, pH 5: 0.4
  Relative activity on ATP, pH 5.5: 0.8
  Relative activity on ATP, pH 6: 1.0
  Relative activity on ATP, pH 6.5: 1.0

— patent publication US20240124857A1, “COMPOSITION FOR GUT HEALTH” (DUPONT NUTRITION BIOSCIENCES APS, priority 2021, published 2024)
